Data published in US20110059889A1 (SYNTONIX PHARMACEUTICALS, published 2011).
Where two headings read alike, the source gives them in different places. Values belong to the binder of their own block, whether it stands above or below them. Bridge positions count the residues as written; N and C are the ends. Square brackets hold non-standard residues; d marks the D form. Ends that are not written are not given here. Phe(4-amidino) = N=C(N)c1ccc(C[C@H](N)C(=O)O)cc1; Phe(4-NH2) = Nc1ccc(C[C@H](N)C(=O)O)cc1; His(Me) = mono-methylated histidine; NMeL = CN[C@@H](CC(C)C)C(=O)O; Pen = CC(C)(S)[C@H](N)C(=O)O; Sar = CNCC(=O)O

What was measured:
[1] = biological target: T1, soluble human FcRn (shFcRn) (human, UniProt P55899 24-297; P61769 21-119); test: IgG competition ELISA
T1 construct: Biotinylated for the ELISA, amine-coupled to a CM5 chip for SPR; also called biotinylated shFcRn

[2] = biological target: T1, soluble human FcRn (shFcRn); test: SPR pH 7.4
Procedure: (§1) The following steps were performed to cross-link soluble human or cynomolgus FcRn to the dextran surface of a CM5 sensor chip (Biacore AB, Uppsala, Sweden) by an amine coupling reaction involving 1-ethyl-(3-dimethylaminopropyl)-carbodiimide hydrochloride (EDC) (Biacore AB, Uppsala, Sweden) and N-hydroxysuccinimide (NHS) (Biacore AB, Uppsala, Sweden) as recommended by Biacore (BIAapplications Handbook, version AB, section 4.2, Biacore AB, Uppsala, Sweden). […] Residual sites on the FcRn flow cell were blocked with 1 M ethanolamine hydrochloride pH 8.5 (Biacore AB, Uppsala, Sweden). A control flow cell was blocked with ethanolamine for reference subtraction. For analysis of the monomeric peptides, FcRn was coated to a final density of 4000-5000 response units (RU). For analysis of the peptide dimers, FcRn was coated to a density of 2000-2500 RU. All SPR measurements were performed using a BIACORE 3000 Instrument (Biacore AB Uppsala, Sweden). For measurements done at either pH 6 or pH 7.4, experiments were performed in 50 mM phosphate, 100 mM sodium chloride, 0.01% surfactant P20 (Biacore AB, Uppsala, Sweden).
(§2) Ten, 2-fold dilutions of the peptide were injected over the FcRn-CM5 chip at a rate of 20 μl/min for 2 min. The peptide was dissociated from the chip for 2.5 minutes with buffer. Any remaining peptide was removed from the chip with a 30 second injection of HBS-P buffer (Biacore AB, Uppsala, Sweden) at a rate of 30 μl/min. Sensorgrams were generated and analyzed using BiaEval software version 3.1 (Biacore AB, Uppsala, Sweden). The equilibrium RU observed for each injection was plotted against concentration. The equilibrium KD values were derived by analysis of the plots using the steady state affinity model included in the BiaEval software.

[3] = biological target: T1, soluble human FcRn (shFcRn); test: SPR pH 6
Procedure: as §1, §2

[4] = biological target: T1, soluble human FcRn (shFcRn); test: IgG competition ELISA; remark: listed apart in the source
Procedure: The wells were coated with 100 μl/well of 1 μg/ml biotinylated-shFcRn in Buffer A. The plate was sealed and incubated at 37° C. for 2 hours. Afterwards, the plate was washed with 200 μl/well of Buffer B (Buffer B: 100 mM MES pH 6, 150 mM NaCl, 0.5% BSA IgG-free (Jackson ImmunoResearch, West Grove, Pa.), 0.05% Tween-20). […] To allow for mixing, the plate was rocked for 2 minutes, sealed and incubated at 37° C. for 2 hours. […] The plate was covered, incubated for 30 minutes at room temperature and washed 4 times with 200 μl/well of ice-cold buffer B. SureBlue TMB substrate solution (100 μl/well, KPL, Gaithersburg, Md.) was added and the plate was allowed to incubate at room temperature until color developed, which took 5 to 10 minutes. Once color developed, 100 μl/well of TMB stop solution (KPL, Gaithersburg, Md.) was added and the absorbance was measured at 450 nm. The data was plotted as absorbance vs. peptide concentration to derive the inhibitory concentration 50% (IC₅₀) values.

[5] = biological target: T1, soluble human FcRn (shFcRn); test: SPR pH 6; remark: listed apart in the source
Procedure: as §1, §2

IC50 [1]: 2900 nM | Kd [2]: 380 nM | Kd [3]: 140 nM
Binder: RF[Pen]TG[His(Me)]FGGLYPC-NH2 (disulfide 3-13) [Peptide No. 259]

IC50 [4]: > 50000 nM
B1: Peptide No. 218 (peptide)
peptide: RF[Pen]TGHF[dV][Sar][NMeL]YPC-NH2
modifications: disulfide 3-13; N-terminus assumed
SMILES: CC(C)C[C@H]1C(=O)N[C@@H](Cc2ccc(O)cc2)C(=O)N2CCC[C@H]2C(=O)N[C@H](C(N)=O)CSSC(C)(C)[C@H](NC(=O)[C@H](Cc2ccccc2)NC(=O)[C@@H](N)CCCNC(=N)N)C(=O)N[C@@H]([C@@H](C)O)C(=O)NCC(=O)N[C@@H](Cc2c[nH]cn2)C(=O)N[C@@H](Cc2ccccc2)C(=O)N[C@H](C(C)C)C(=O)N(C)CC(=O)N1C

Kd [2]: 73 nM | Kd [3]: 74 nM
B2: Peptide No. 257 (peptide)
peptide: RF[Pen]TG[Phe(4-amidino)]FG[Sar][NMeL]YPC-NH2
modifications: disulfide 3-13; N-terminus assumed
SMILES: CC(C)C[C@H]1C(=O)N[C@@H](Cc2ccc(O)cc2)C(=O)N2CCC[C@H]2C(=O)N[C@H](C(N)=O)CSSC(C)(C)[C@H](NC(=O)[C@H](Cc2ccccc2)NC(=O)[C@@H](N)CCCNC(=N)N)C(=O)N[C@@H]([C@@H](C)O)C(=O)NCC(=O)N[C@@H](Cc2ccc(C(=N)N)cc2)C(=O)N[C@@H](Cc2ccccc2)C(=O)NCC(=O)N(C)CC(=O)N1C

IC50 [1]: 40000 nM | Kd [2]: 1100 nM | Kd [3]: 1300 nM
B5: Peptide No. 255 (peptide)
peptide: RF[Pen]TGKFG[Sar][NMeL]YPC-NH2
modifications: disulfide 3-13; N-terminus assumed
SMILES: CC(C)C[C@H]1C(=O)N[C@@H](Cc2ccc(O)cc2)C(=O)N2CCC[C@H]2C(=O)N[C@H](C(N)=O)CSSC(C)(C)[C@H](NC(=O)[C@H](Cc2ccccc2)NC(=O)[C@@H](N)CCCNC(=N)N)C(=O)N[C@@H]([C@@H](C)O)C(=O)NCC(=O)N[C@@H](CCCCN)C(=O)N[C@@H](Cc2ccccc2)C(=O)NCC(=O)N(C)CC(=O)N1C

IC50 [4]: 6400 nM | Kd [5]: 580 nM
B8: Peptide No. 244 (peptide)
peptide: RF[Pen]TGHF[dE][Sar][NMeL]YPC-NH2
modifications: disulfide 3-13; N-terminus assumed
SMILES: CC(C)C[C@H]1C(=O)N[C@@H](Cc2ccc(O)cc2)C(=O)N2CCC[C@H]2C(=O)N[C@H](C(N)=O)CSSC(C)(C)[C@H](NC(=O)[C@H](Cc2ccccc2)NC(=O)[C@@H](N)CCCNC(=N)N)C(=O)N[C@@H]([C@@H](C)O)C(=O)NCC(=O)N[C@@H](Cc2c[nH]cn2)C(=O)N[C@@H](Cc2ccccc2)C(=O)N[C@H](CCC(=O)O)C(=O)N(C)CC(=O)N1C

IC50 [1]: 4600 nM | Kd [2]: 1100 nM
B9: Peptide No. 258 (peptide)
peptide: RF[Pen]TG[Phe(4-NH2)]FG[Sar][NMeL]YPC-NH2
modifications: disulfide 3-13; N-terminus assumed
SMILES: CC(C)C[C@H]1C(=O)N[C@@H](Cc2ccc(O)cc2)C(=O)N2CCC[C@H]2C(=O)N[C@H](C(N)=O)CSSC(C)(C)[C@H](NC(=O)[C@H](Cc2ccccc2)NC(=O)[C@@H](N)CCCNC(=N)N)C(=O)N[C@@H]([C@@H](C)O)C(=O)NCC(=O)N[C@@H](Cc2ccc(N)cc2)C(=O)N[C@@H](Cc2ccccc2)C(=O)NCC(=O)N(C)CC(=O)N1C

Second part, the binder before the results:

B3: Peptide No. 243 (peptide)
peptide: RF[Pen]TGHF[dN][Sar][NMeL]YPC-NH2
modifications: disulfide 3-13; N-terminus assumed
SMILES: CC(C)C[C@H]1C(=O)N[C@@H](Cc2ccc(O)cc2)C(=O)N2CCC[C@H]2C(=O)N[C@H](C(N)=O)CSSC(C)(C)[C@H](NC(=O)[C@H](Cc2ccccc2)NC(=O)[C@@H](N)CCCNC(=N)N)C(=O)N[C@@H]([C@@H](C)O)C(=O)NCC(=O)N[C@@H](Cc2c[nH]cn2)C(=O)N[C@@H](Cc2ccccc2)C(=O)N[C@H](CC(N)=O)C(=O)N(C)CC(=O)N1C
IC50 [4]: 29000 nM | Kd [5]: 2100 nM

B4: Peptide No. 256 (peptide)
peptide: RF[Pen]TGRFG[Sar][NMeL]YPC-NH2
modifications: disulfide 3-13; N-terminus assumed
SMILES: CC(C)C[C@H]1C(=O)N[C@@H](Cc2ccc(O)cc2)C(=O)N2CCC[C@H]2C(=O)N[C@H](C(N)=O)CSSC(C)(C)[C@H](NC(=O)[C@H](Cc2ccccc2)NC(=O)[C@@H](N)CCCNC(=N)N)C(=O)N[C@@H]([C@@H](C)O)C(=O)NCC(=O)N[C@@H](CCCNC(=N)N)C(=O)N[C@@H](Cc2ccccc2)C(=O)NCC(=O)N(C)CC(=O)N1C
IC50 [1]: 5500 nM | Kd [2]: 500 nM | Kd [3]: 500 nM

B6: Peptide No. 219 (peptide)
peptide: RF[Pen]TGHF[dL][Sar][NMeL]YPC-NH2
modifications: disulfide 3-13; N-terminus assumed
SMILES: CC(C)C[C@H]1NC(=O)[C@H](Cc2ccccc2)NC(=O)[C@H](Cc2c[nH]cn2)NC(=O)CNC(=O)[C@H]([C@@H](C)O)NC(=O)[C@@H](NC(=O)[C@H](Cc2ccccc2)NC(=O)[C@@H](N)CCCNC(=N)N)C(C)(C)SSC[C@@H](C(N)=O)NC(=O)[C@@H]2CCCN2C(=O)[C@H](Cc2ccc(O)cc2)NC(=O)[C@H](CC(C)C)N(C)C(=O)CN(C)C1=O
IC50 [4]: 4000 nM | Kd [5]: 470 nM

B7: Peptide No. 241 (peptide)
peptide: RF[Pen]TGHF[dS][Sar][NMeL]YPC-NH2
modifications: disulfide 3-13; N-terminus assumed
SMILES: CC(C)C[C@H]1C(=O)N[C@@H](Cc2ccc(O)cc2)C(=O)N2CCC[C@H]2C(=O)N[C@H](C(N)=O)CSSC(C)(C)[C@H](NC(=O)[C@H](Cc2ccccc2)NC(=O)[C@@H](N)CCCNC(=N)N)C(=O)N[C@@H]([C@@H](C)O)C(=O)NCC(=O)N[C@@H](Cc2c[nH]cn2)C(=O)N[C@@H](Cc2ccccc2)C(=O)N[C@H](CO)C(=O)N(C)CC(=O)N1C
IC50 [4]: 23000 nM | Kd [5]: 1100 nM

B10: Peptide No. 240 (peptide)
peptide: RF[Pen]TGHF[dT][Sar][NMeL]YPC-NH2
modifications: disulfide 3-13; N-terminus assumed
SMILES: CC(C)C[C@H]1C(=O)N[C@@H](Cc2ccc(O)cc2)C(=O)N2CCC[C@H]2C(=O)N[C@H](C(N)=O)CSSC(C)(C)[C@H](NC(=O)[C@H](Cc2ccccc2)NC(=O)[C@@H](N)CCCNC(=N)N)C(=O)N[C@@H]([C@@H](C)O)C(=O)NCC(=O)N[C@@H](Cc2c[nH]cn2)C(=O)N[C@@H](Cc2ccccc2)C(=O)N[C@H]([C@H](C)O)C(=O)N(C)CC(=O)N1C
IC50 [4]: 71000 nM | Kd [5]: 4800 nM

Binder: RF[Pen]TG[His(Me)2]FGGLYPC-NH2 (disulfide 3-13) [Peptide No. 260]
IC50 [1]: 4400 nM | Kd [2]: 460 nM | Kd [3]: 190 nM
